In patent US11872307B2, “Liquisoft capsules” (PATHEON SOFTGELS INC., priority 2015, dated 2024):

Experiment: Appearance / precipitation of matrix fill
Type: physicochemical
Settings: dextromethorphan hydrobromide 30 mg, menthol 5 mg
Description: Formulas 14, 15, and 16 were the initial matrix prototypes for dextromethorphan hydrobromide (30 mg) and menthol (5 mg). Three different taste-masking agents were tested: mannitol, thaumatin (Talin®) and glycyrrhizic acid salts (MagnaSweet®).
Thaumatin and glycyrrhizic acid salts were employed with the lower active pharmaceutical ingredient dose, individually and as a combination. […] Thus, the glycyrrhizic acid salts were not further assessed for chemical stability. Thus, Formula 19 was formulated using thaumatin and used for excipient compatibility studies.

Thaumatin
appearance of matrix fill: hazy appearance
